In US20240218069A1 (LYVGEN BIOPHARMA, published 2024):

T1: human B7H3 (human, UniProt Q5ZPR3 29-534)
T1 construct: whole, on cells; CHO cells over-expressing human B7H3 (CHO-B7H3); also called CD276; cellular B7H3
T1 sequence (looked up): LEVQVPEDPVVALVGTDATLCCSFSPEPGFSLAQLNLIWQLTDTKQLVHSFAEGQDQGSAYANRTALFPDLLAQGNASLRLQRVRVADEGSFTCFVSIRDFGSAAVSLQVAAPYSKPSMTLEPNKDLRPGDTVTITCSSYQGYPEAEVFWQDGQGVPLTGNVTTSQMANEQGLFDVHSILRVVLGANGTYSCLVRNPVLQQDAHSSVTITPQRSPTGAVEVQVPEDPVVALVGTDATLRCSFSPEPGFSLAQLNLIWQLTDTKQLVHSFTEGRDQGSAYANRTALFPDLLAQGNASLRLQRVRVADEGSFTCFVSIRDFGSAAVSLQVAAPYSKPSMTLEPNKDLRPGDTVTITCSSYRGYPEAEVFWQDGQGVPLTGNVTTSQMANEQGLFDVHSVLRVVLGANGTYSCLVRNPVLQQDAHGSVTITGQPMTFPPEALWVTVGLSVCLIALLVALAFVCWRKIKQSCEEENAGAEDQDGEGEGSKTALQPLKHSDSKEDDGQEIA

B1: Ly1581 (bispecific antibody)
heavy: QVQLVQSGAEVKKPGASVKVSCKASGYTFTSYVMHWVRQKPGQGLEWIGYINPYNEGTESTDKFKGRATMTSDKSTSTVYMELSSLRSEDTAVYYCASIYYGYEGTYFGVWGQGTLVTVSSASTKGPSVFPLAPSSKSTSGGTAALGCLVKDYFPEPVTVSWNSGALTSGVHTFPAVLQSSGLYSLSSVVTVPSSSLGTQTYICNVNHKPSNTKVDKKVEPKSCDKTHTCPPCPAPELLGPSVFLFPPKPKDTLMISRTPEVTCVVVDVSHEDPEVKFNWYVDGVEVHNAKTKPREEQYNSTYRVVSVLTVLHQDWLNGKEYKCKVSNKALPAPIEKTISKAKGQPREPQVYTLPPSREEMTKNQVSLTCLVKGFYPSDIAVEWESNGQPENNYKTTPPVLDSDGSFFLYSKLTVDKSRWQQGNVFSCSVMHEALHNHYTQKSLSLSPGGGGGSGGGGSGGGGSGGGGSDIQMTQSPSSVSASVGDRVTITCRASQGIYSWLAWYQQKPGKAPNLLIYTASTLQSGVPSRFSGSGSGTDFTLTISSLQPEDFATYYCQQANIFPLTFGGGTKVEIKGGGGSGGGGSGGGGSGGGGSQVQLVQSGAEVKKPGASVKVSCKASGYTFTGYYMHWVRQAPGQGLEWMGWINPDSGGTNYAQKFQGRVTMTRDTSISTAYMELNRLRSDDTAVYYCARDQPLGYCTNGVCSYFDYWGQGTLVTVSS
light: EIVLTQSPATLSLSPGERATLSCRASSSVSYMHWYQQKPGQAPRPWIYATSNLASGIPARFSGSRSGTDYTLTISSLEPEDFAVYYCQQWSSNTLTFGGGTKVEIKRTVAAPSVFIFPPSDEQLKSGTASVVCLLNNFYPREAKVQWKVDNALQSGNSQESVTEQDSKDSTYSLSSTLTLSKADYEKHKVYACEVTHQGLSSPVTKSFNRGEC
notes: also called anti-B7H3/CD40 bi-specific antibody Ly1581
B2: Ly1662 (bispecific antibody)
heavy: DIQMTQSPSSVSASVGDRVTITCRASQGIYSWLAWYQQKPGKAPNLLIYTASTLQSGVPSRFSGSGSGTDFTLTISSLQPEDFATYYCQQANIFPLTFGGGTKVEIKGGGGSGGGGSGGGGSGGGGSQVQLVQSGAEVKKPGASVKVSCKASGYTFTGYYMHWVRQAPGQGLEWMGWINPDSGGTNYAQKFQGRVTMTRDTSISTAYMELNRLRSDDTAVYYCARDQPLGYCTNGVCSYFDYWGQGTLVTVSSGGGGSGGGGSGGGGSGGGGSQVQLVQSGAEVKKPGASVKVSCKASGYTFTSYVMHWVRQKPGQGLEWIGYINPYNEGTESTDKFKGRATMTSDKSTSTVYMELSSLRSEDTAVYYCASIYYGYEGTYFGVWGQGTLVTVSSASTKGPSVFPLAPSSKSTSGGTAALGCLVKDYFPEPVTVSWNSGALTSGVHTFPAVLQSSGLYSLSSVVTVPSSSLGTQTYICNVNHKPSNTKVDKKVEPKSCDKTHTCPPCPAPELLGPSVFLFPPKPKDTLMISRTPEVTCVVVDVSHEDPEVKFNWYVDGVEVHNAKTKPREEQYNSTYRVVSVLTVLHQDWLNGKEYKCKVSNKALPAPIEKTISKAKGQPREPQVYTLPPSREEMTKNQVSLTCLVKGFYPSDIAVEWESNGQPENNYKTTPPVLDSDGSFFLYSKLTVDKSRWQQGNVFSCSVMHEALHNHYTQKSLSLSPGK
light: EIVLTQSPATLSLSPGERATLSCRASSSVSYMHWYQQKPGQAPRPWIYATSNLASGIPARFSGSRSGTDYTLTISSLEPEDFAVYYCQQWSSNTLTFGGGTKVEIKRTVAAPSVFIFPPSDEQLKSGTASVVCLLNNFYPREAKVQWKVDNALQSGNSQESVTEQDSKDSTYSLSSTLTLSKADYEKHKVYACEVTHQGLSSPVTKSFNRGEC
notes: Two-chain format; also called anti-B7H3/CD40 bi-specific antibody Ly1662
B3: Ly1660 (bispecific antibody, human IgG1, kappa)
heavy: QVQLVQSGAEVKKPGASVKVSCKASGYTFTSYVMHWVRQKPGQGLEWIGYINPYNEGTESTDKFKGRATMTSDKSTSTVYMELSSLRSEDTAVYYCASIYYGYEGTYFGVWGQGTLVTVSSASTKGPSVFPLAPSSKSTSGGTAALGCLVKDYFPEPVTVSWNSGALTSGVHTFPAVLQSSGLYSLSSVVTVPSSSLGTQTYICNVNHKPSNTKVDKKVEPKSCDKTHTCPPCPAPELLGPSVFLFPPKPKDTLMISRTPEVTCVVVDVSHEDPEVKFNWYVDGVEVHNAKTKPREEQYNSTYRVVSVLTVLHQDWLNGKEYKCKVSNKALPAPIEKTISKAKGQPREPQVYTLPPCREEMTKNQVSLWCLVKGFYPSDIAVEWESNGQPENNYKTTPPVLDSDGSFFLYSKLTVDKSRWQQGNVFSCSVMHEALHNHYTQKSLSLSPGK
chain 1: not shown
light: EIVLTQSPATLSLSPGERATLSCRASSSVSYMHWYQQKPGQAPRPWIYATSNLASGIPARFSGSRSGTDYTLTISSLEPEDFAVYYCQQWSSNTLTFGGGTKVEIKRTVAAPSVFIFPPSDEQLKSGTASVVCLLNNFYPREAKVQWKVDNALQSGNSQESVTEQDSKDSTYSLSSTLTLSKADYEKHKVYACEVTHQGLSSPVTKSFNRGEC
chain 2: DIQMTQSPSSVSASVGDRVTITCRASQGIYSWLAWYQQKPGKAPNLLIYTASTLQSGVPSRFSGSGSGTDFTLTISSLQPEDFATYYCQQANIFPLTFGGGTKVEIKSSASTKGPSVFPLAPSSKSTSGGTAALGCLVKDYFPEPVTVSWNSGALTSGVHTFPAVLQSSGLYSLSSVVTVPSSSLGTQTYICNVNHKPSNTKVDKKVEPKSC
notes: Four-chain heterodimer format; also called anti-B7H3/CD40 bi-specific antibody Ly1660
B4: Ly1661 (bispecific antibody, human IgG1, kappa)
heavy: QVQLVQSGAEVKKPGASVKVSCKASGYTFTSYVMHWVRQKPGQGLEWIGYINPYNEGTESTDKFKGRATMTSDKSTSTVYMELSSLRSEDTAVYYCASIYYGYEGTYFGVWGQGTLVTVSSASTKGPSVFPLAPSSKSTSGGTAALGCLVKDYFPEPVTVSWNSGALTSGVHTFPAVLQSSGLYSLSSVVTVPSSSLGTQTYICNVNHKPSNTKVDKKVEPKSCDKTHTCPPCPAPELLGPSVFLFPPKPKDTLMISRTPEVTCVVVDVSHEDPEVKFNWYVDGVEVHNAKTKPREEQYNSTYRVVSVLTVLHQDWLNGKEYKCKVSNKALPAPIEKTISKAKGQPREPQVYTDPPSREEMTKNQVSLTCEVKGFYPSDIAVEWESNGQPENNYKTTPPVLDSDGSFFLYSKLTVDKSRWQQGNVFSCSVMHEALHNHYTQKSLSLSPGK
chain 1: not shown
light: EIVLTQSPATLSLSPGERATLSCRASSSVSYMHWYQQKPGQAPRPWIYATSNLASGIPARFSGSRSGTDYTLTISSLEPEDFAVYYCQQWSSNTLTFGGGTKVEIKRTVAAPSVFIFPPSDEQLKSGTASVVCLLNNFYPREAKVQWKVDNALQSGNSQESVTEQDSKDSTYSLSSTLTLSKADYEKHKVYACEVTHQGLSSPVTKSFNRGEC
chain 2: DIQMTQSPSSVSASVGDRVTITCRASQGIYSWLAWYQQKPGKAPNLLIYTASTLQSGVPSRFSGSGSGTDFTLTISSLQPEDFATYYCQQANIFPLTFGGGTKVEIKSSASTKGPSVFPLAPSSKSTSGGTAALGCLVKDYFPEPVTVSWNSGALTSGVHTFPAVLQSSGLYSLSSVVTVPSSSLGTQTYICNVNHKPSNTKVDKKVEPKSC
notes: Four-chain heterodimer format; also called anti-B7H3/CD40 bi-specific antibody Ly1661
B5: Ly1663 (bispecific antibody)
heavy: QVQLVQSGAEVKKPGASVKVSCKASGYTFTSYVMHWVRQKPGQGLEWIGYINPYNEGTESTDKFKGRATMTSDKSTSTVYMELSSLRSEDTAVYYCASIYYGYEGTYFGVWGQGTLVTVSSASTKGPSVFPLAPSSKSTSGGTAALGCLVKDYFPEPVTVSWNSGALTSGVHTFPAVLQSSGLYSLSSVVTVPSSSLGTQTYICNVNHKPSNTKVDKKVEPKSCDKTHTCPPCPAPELLGPSVFLFPPKPKDTLMISRTPEVTCVVVDVSHEDPEVKFNWYVDGVEVHNAKTKPREEQYNSTYRVVSVLTVLHQDWLNGKEYKCKVSNKALPAPIEKTISKAKGQPREPQVYTLPPSREEMTKNQVSLTCLVKGFYPSDIAVEWESNGQPENNYKTTPPVLDSDGSFFLYSKLTVDKSRWQQGNVFSCSVMHEALHNHYTQKSLSLSPGK
light: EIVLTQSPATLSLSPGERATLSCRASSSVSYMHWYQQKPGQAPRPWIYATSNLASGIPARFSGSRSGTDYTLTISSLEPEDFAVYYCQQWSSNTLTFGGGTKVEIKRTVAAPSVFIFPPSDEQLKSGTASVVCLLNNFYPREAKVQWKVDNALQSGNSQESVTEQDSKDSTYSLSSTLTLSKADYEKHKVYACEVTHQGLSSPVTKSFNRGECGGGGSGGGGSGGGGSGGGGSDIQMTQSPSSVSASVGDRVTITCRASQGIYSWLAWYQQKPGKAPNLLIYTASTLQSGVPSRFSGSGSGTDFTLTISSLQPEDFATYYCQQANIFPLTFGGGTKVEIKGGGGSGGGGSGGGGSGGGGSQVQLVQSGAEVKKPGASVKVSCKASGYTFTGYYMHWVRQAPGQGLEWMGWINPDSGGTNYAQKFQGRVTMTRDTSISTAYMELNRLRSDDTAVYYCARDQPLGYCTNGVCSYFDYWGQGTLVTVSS
notes: Two-chain format; also called anti-B7H3/CD40 bi-specific antibody Ly1663
B6: Ly1579 (bispecific antibody)
heavy: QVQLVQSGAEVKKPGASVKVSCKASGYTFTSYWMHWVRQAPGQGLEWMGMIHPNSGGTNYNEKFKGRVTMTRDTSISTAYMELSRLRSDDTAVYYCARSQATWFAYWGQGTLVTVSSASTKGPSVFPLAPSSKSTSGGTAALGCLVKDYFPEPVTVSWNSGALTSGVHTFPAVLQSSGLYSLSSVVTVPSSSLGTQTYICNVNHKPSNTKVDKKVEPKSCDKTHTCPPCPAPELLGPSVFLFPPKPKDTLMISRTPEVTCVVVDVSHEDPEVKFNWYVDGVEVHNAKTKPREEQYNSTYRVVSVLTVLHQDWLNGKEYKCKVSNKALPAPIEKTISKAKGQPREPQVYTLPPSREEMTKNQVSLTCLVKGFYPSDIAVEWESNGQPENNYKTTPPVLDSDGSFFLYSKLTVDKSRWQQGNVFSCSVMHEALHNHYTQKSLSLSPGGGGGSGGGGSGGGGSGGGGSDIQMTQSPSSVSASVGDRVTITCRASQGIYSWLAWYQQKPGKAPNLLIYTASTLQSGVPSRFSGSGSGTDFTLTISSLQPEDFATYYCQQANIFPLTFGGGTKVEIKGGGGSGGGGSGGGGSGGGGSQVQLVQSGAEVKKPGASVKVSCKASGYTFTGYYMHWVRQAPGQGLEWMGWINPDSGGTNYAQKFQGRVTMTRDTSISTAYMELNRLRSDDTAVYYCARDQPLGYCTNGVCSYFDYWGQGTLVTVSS
light: EIVLTQSPATLSLSPGERATLSCRASSSVSSSYLHWYQQKPGQAPRLLIYSTSNLASGIPARFSGSGSGTDFTLTISSLEPEDFAVYYCQHYSGYPLTFGGGTKVEIKRTVAAPSVFIFPPSDEQLKSGTASVVCLLNNFYPREAKVQWKVDNALQSGNSQESVTEQDSKDSTYSLSSTLTLSKADYEKHKVYACEVTHQGLSSPVTKSFNRGEC
notes: Two-chain format; also called anti-B7H3/CD40 bi-specific antibody Ly1579
B7: Ly1426 (antibody, human IgG1, kappa, V domains shown)
VH: QVQLVQSGAEVKKPGASVKVSCKASGYTFTSYVMHWVRQAPGQGLEWMGYINPYNDGTECTDKFKGRVTMTRDTSTSTVYMELSSLRSEDTAVYYCARIYYGYDGTYFGVWGQGTLVTVSS
VL: EIVLTQSPATLSLSPGERATLSCRASSSVSYMHWYQQKPGQAPRLLIYATSNLASGIPARFSGSGSGTDFTLTISSLEPEDFAVYYCQQWSSNTLTFGGGTKVEIKR
notes: also called Ly383_VH-1/Ly383_VL-1; grafted humanized antibody of Ly383

Experiments:
[1] = biological target: T2, human CD40 (human, UniProt P25942 21-277); experiment: FACS on CHO cells expressing human CD40 (FIGS. 2C and 2D)
T2 construct: whole, on cells; also called huCD40

[2] = biological target: T2, human CD40; experiment: FACS on CHO cells expressing human CD40 (FIG. 2C)
[3] = biological target: T2, human CD40; experiment: FACS on CHO cells expressing human CD40 (FIG. 2D)
[4] = biological target: T1, human B7H3; experiment: FACS on CHO cells over-expressing human B7H3
Protocol: FACS analysis was performed to evaluate the binding properties of exemplary anti-B7H3 humanized antibodies. Briefly, CHO cells over-expressing human B7H3 were harvested using trypsin-EDTA partial digestion followed by centrifugation at 1000 g for 3 minutes. The cells were re-suspended in cold PBS-BSA (2%) at 2×10⁶/mL and aliquoted to 100 μL/tube. The anti-B7H3 humanized antibodies were serially diluted in PBS-BSA and 50 μL of each was added to the CHO-B7H3 cells. The cell were mixed and incubated at 4° C. in the dark for 2 hours, then washed with PBS-BSA twice. Secondary antibody conjugates (goat F(ab′)₂ anti-human IgG-Fc (PE), pre-adsorbed, Abcam #ab98596) at 1/500 dilution, 100 μL/well, was used to resuspend the cells. The cells were incubated 4° C. in dark for another 1 hour and washed twice with PBS-BSA, followed by fixation in 2% PFA/PBS, and then subjected to FACS analysis.
Binding of the antibodies to human B7H3 expressing CHO cells were evaluated and the mean fluorescence intensity is plotted in histograms as shown in FIGS. 1A-1C. […] However, Ly1426 (CDR grafted, without back mutation) didn't bind to cellular B7H3.

T2 sequence (P25942 21-277): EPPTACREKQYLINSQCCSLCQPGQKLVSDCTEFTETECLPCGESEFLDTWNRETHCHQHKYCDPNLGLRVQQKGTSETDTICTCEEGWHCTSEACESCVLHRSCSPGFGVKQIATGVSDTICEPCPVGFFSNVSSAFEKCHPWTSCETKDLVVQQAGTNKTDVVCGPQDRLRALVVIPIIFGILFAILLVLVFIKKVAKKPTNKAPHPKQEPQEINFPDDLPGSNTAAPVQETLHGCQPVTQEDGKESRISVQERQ

| Binder | binding result [2] | also measured |
| --- | --- | --- |
| B1 | – | binding result [1]: binds |
| B2 | binds | – |
| B3 | binds | – |
| B4 | binds | – |
| B5 | binds | – |
| B6 | – | binding result [3]: binds |
| B7 | – | binding result [4]: no binding |
